These results are taken from US20260001937A1, “NOVEL RECOMBINANT FIBRINOGEN VARIANTS FOR FIBRIN SEALANTS FOR SURGICAL WOUND CARE” (Julius-Maximilians-Universität Würzburg, priority 2022, published 2026).

Where a chain is given by its changes, count along the chain named.

The target of data set [1] is T1, fibrin gel (Sigma Aldrich fibrinogen, 20 mg/mL, gelled with thrombin, factor XIIIa and CaCl2), P02671.
T1 chain 1: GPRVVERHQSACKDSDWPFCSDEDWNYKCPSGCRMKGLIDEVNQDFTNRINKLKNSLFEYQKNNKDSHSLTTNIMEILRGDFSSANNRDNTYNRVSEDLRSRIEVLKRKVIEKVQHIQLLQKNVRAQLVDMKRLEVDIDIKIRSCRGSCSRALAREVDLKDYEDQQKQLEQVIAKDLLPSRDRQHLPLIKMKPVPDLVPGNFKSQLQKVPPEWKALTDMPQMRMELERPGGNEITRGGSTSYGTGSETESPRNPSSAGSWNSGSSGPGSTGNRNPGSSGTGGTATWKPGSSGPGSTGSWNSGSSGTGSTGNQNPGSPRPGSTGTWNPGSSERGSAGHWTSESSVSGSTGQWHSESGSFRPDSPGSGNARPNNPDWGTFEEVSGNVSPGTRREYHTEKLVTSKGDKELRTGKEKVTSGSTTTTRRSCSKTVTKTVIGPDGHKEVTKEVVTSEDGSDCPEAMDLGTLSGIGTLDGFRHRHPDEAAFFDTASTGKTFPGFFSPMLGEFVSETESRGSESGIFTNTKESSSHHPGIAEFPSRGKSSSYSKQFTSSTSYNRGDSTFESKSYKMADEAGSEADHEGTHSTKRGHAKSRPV
T1 chain 2: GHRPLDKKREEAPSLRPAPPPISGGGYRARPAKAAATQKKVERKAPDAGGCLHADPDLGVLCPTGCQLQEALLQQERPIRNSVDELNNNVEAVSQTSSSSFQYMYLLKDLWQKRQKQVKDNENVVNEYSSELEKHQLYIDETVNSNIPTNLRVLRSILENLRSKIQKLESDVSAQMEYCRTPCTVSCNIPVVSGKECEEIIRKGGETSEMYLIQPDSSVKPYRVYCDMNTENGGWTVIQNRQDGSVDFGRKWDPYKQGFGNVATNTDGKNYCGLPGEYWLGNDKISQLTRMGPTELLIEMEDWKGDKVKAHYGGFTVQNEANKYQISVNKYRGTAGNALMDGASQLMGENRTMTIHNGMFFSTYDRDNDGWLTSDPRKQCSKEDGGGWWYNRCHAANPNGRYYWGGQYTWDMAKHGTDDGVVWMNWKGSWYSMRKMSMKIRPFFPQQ
T1 chain 3: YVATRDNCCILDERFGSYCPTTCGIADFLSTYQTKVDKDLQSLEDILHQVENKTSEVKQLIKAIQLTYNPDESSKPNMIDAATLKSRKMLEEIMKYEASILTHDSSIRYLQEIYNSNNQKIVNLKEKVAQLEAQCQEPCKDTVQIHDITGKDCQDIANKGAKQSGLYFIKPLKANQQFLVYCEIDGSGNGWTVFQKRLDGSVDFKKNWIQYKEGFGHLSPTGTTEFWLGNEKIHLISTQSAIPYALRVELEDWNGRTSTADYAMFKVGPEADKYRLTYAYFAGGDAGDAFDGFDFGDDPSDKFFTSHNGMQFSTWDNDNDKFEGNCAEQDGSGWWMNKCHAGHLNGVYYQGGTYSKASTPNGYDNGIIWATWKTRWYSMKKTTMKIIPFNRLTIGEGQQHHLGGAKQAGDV

Data set [2] concerns the target T2, synthetic gamma-chain peptide ATW(K)TRW with K changed to serine.
T2 chain: ATWSTRW

The target of data set [3] is T3, Ala-rFbg (recombinant fibrinogen, gamma-chain K88A, K111A, K382A, K399A).
T3 chain 1: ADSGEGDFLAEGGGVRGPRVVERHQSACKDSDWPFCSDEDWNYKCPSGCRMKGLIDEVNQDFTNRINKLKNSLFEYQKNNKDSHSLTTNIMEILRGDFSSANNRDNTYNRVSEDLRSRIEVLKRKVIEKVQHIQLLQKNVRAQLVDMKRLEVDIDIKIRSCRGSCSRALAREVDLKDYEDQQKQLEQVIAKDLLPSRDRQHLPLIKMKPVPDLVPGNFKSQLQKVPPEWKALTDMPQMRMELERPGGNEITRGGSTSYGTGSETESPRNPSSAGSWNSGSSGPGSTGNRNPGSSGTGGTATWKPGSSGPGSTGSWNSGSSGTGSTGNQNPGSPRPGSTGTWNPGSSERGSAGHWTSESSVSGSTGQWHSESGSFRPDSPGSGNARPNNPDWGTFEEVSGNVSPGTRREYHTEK
T3 chain 2: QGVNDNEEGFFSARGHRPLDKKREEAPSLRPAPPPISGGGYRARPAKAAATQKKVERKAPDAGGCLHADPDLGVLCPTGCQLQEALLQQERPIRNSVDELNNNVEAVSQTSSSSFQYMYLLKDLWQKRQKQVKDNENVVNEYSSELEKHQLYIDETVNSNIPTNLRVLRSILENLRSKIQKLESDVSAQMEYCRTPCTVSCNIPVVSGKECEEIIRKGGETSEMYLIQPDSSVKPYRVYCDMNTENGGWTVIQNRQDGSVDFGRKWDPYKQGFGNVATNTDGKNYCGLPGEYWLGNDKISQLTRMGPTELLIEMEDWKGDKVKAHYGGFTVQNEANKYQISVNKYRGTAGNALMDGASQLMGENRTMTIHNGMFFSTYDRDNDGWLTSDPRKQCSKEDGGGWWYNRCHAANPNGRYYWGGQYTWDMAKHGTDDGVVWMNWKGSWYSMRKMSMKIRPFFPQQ
T3 chain 3: T1 chain 3 with K62A, K85A, K356A, K373A

B1: human plasmin (Merck) (protein)
chain: KVYLSECKTGNGKNYRGTMSKTKNGITCQKWSSTSPHRPRFSPATHPSEGLEENYCRNPDNDPQGPWCYTTDPEKRYDYCDILECEEECMHCSGENYDGKISKTMSGLECQAWDSQSPHAHGYIPSKFPNKNLKKNYCRNPDRELRPWCFTTDPNKRWELCDIPRCTTPPPSSGPTYQCLKGTGENYRGNVAVTVSGHTCQHWSAQTPHTHNRTPENFPCKNLDENYCRNPDGKRAPWCHTTNSQVRWEYCKIPSCDSSPVSTEQLAPTAPPELTPVVQDCYHGDGQSYRGTSSTTTTGKKCQSWSSMTPHRHQKTPENYPNAGLTMNYCRNPDADKGPWCFTTDPSVRWEYCNLKKCSGTEASVVAPPPVVLLPDVETPSEEDCMFGNGKGYRGKRATTVTGTPCQDWAAQEPHRHSIFTPETNPRAGLEKNYCRNPDGDVGGPWCYTTNPRKLYDYCDVPQCAAPSFDCGKPQVEPKKCPGRVVGGCVAHPHSWPWQVSLRTRFGMHFCGGTLISPEWVLTAAHCLEKSPRPSSYKVILGAHQEVNLEPHVQEIEVSRLFLEPTRKDIALLKLSSPAVITDKVIPACLPSPNYVVADRTECFITGWGETQGTFGAGLLKEAQLPVIENKVCNRYEFLNGRVQSTELCAGHLAGGTDSCQGDSGGPLVCFEKDKYILQGVTSWGLGCARPNKPGVYVRVSRFVTWIEGVMRNN
On to B1, for which, in data set [1], the “time course of plasmin cleavage sites in the alpha-chain of fibrin gels, high-resolution ESI-MS (0.005 mU/ml plasmin, up to 2 h)” value is “cleavage begins in the αC region of fibrinogen with the most prominent cleavage at positions 602 (K|MADE) and 620 (K|RGHA). Next, cleavage sites further down the αC region are cleaved ... (e. g. positions 527 (K|TFPG), 510 (R|HRHP), 225 (K|MKPV) and 238 (K|SQLQ)). At the same time, cleavage in the α”; the “time course of plasmin cleavage sites in the beta-chain of fibrin gels, high-resolution ESI-MS” value was “cleavage of the β-chain starts at the N-terminus highlighted by positions 52 (K|REEA) and 72 (R|ARPA) ... Subsequently, the α-helical part between fragment D and E is cleaved by plasmin (e. g. 152 (K|DLWQ) and 160 (K|QVKD))”; the “time course of plasmin cleavage sites in the gamma-chain of fibrin gels, high-resolution ESI-MS” value is listed as “only one additional cleavage site was found in this time-resolved assay for γ-chain ... With only 5 cleavage sites detected during the early stages of plasmin degradation”. Further, in data set [2], the “plasmin cleavage efficiency of synthetic peptide, HPLC” value is reported as “Peptide sequences including S instead of K showed a significant reduction in cleavage efficiency compared to the original sequences”. In data set [3], the “plasmin cleavage analysis of target sites (peptide fragments detected by MS)” value was “Position 382 shows a partial cleavage for the mutants (both cleaved and non-cleaved peptides detected)”; the “plasmin cleavage at the mutated gamma-chain sites 88, 111, 382, 399, high-resolution ESI-MS after 24 h digest in solution” value is “no cleavage was detected in either of the two mutants for all 4 mutations”.
